In PMC4824076, “Integrated microfluidic approach for quantitative high-throughput measurements of transcription factor binding affinities”:

T1: ATF1 (Homo sapiens, UniProt P18846)
T1 sequence: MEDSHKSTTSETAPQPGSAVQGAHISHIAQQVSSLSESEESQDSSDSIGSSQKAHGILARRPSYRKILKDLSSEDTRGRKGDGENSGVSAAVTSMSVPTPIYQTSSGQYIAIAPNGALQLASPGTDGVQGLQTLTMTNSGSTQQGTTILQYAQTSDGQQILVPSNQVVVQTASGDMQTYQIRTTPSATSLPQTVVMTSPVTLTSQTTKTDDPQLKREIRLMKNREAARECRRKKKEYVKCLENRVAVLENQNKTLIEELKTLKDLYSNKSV


What was measured:
c-Jun;c-Fos (;) = c-Jun;c-Fos (;) (UniProt P05412+P01100); experiment: MITOMI (QPID); conditions: QPID microfluidic MITOMI; 1 h incubation of in vitro expressed extract (about 25 ul, 50 ng protein) with spotted Cy5-dsDNA (0.0156-2 uM spotting dilutions, PEG …)
c-Jun [1] = target: c-Jun (UniProt P05412); experiment: MITOMI (QPID); conditions: QPID microfluidic MITOMI; 1 h incubation of in vitro expressed extract (about 25 ul, 50 ng protein) with spotted Cy5-dsDNA (0.0156-2 uM spotting dilutions, PEG …)
c-Jun [2] = target: c-Jun (Homo sapiens, UniProt P05412); experiment: MITOMI-type chip (QPID); rabbit reticulocyte lysate, 1 h; wash 50 mM HEPES; temperature not stated; DNA spotted at 0.0156-2 uM; conditions: tags: N-cMyc, C-His6 (kept); chain copies: 2; label: Cy5 on the primer strand
c-Fos/c-Jun = c-Fos/c-Jun (Homo sapiens, UniProt P01100;P05412 full;full); experiment: as above; conditions: tags: c-Fos N-cMyc, C-His6; c-Jun HA and V5 at the termini (kept); copies: 1;1; label: Cy5 on the primer strand
ATF1 = target: T1, ATF1; experiment: as above; conditions: tags: N-cMyc, C-His6 (kept); chain copies: 2; label: Cy5 on the primer strand
c-Fos = c-Fos (Homo sapiens, UniProt P01100); experiment: as above; conditions: tags: N-cMyc, C-His6 (kept); label: Cy5 on the primer strand
c-Fos, sequence (P01100 whole entry): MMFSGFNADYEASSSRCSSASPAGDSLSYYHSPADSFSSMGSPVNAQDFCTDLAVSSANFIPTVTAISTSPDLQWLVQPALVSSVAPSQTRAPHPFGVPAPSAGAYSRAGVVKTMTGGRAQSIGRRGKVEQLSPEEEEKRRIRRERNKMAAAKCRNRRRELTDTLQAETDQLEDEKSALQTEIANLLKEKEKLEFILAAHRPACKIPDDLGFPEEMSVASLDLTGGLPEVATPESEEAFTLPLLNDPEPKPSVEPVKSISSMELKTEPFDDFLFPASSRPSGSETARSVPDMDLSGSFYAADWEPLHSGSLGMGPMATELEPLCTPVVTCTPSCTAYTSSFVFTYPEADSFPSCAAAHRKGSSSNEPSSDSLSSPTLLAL

c-Jun (UniProt P05412), sequence (P05412 252-315): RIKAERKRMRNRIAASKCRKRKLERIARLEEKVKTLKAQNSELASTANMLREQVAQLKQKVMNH
c-Jun;c-Fos (;), sequence (P05412 252-315, chain 1 of 2): as the sequence (P05412 252-315) above
c-Jun;c-Fos (;), sequence (P01100 137-200, chain 2 of 2): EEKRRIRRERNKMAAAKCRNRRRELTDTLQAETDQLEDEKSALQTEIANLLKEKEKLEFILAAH
c-Jun (Homo sapiens, UniProt P05412), sequence (P05412 whole entry): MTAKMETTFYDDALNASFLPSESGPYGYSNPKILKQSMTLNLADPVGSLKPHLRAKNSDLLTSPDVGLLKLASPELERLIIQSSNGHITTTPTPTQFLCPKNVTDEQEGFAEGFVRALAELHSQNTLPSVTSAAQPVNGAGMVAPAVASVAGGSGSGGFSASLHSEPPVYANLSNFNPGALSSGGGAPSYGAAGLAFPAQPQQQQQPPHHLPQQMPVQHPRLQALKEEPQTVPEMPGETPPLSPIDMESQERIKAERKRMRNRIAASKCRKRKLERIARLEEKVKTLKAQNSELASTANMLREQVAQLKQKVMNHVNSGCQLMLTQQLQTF
c-Fos/c-Jun, sequence (P01100 whole entry, chain 1 of 2): as the sequence (P01100 whole entry) above
c-Fos/c-Jun, sequence (P05412 whole entry, chain 2 of 2): as the sequence (P05412 whole entry) above

Row | Molecule | Kd (c-Jun;c-Fos (;)) [µM] | Kd (c-Jun [1]) [µM] | Kd (c-Jun [2]) [µM] | Kd (c-Fos/c-Jun) [µM] | Kd (ATF1) [µM] | Kd (c-Fos) [µM]
1 | GGCCACTACCGCTTCCTCCACATGGCGTCATGGTTTTCTCCACCAAGGAAGT (double strand) [oligo 5 (CRE half-site)] | 3.5 |  |  |  |  | 
2 | TTATGACCTGGGAGTGAGTCAATGGAATCCACAGA (double strand) [oligo 4 (AP-1)] | 0.5 |  |  |  |  | 
3 | TTATCCACTTGCGCTCGCCGAGTGGCGTCACCAGCGGTACTGTAATGACGAT (double strand) [oligo 6 (CRE half-site)] | 4 |  |  |  |  | 
4 | GGCCACTACCGCTTCCTCCACATGAGTCATGGTTTTCTCCACCAAGGAAGT (double strand) [oligo 3 (AP-1)] | 0.27 | 2.5 |  |  |  | 
5 | GGCCACTACCGCTTCCTCCACATGACGTCATGGTTTTCTCCACCAAGGAAGT (double strand) [oligo 1 (CRE)] | 0.19 | 1.3 |  |  |  | 
6 | TTATGACCTGGGAGTGACGTCATGGAATCCACAGA (double strand) [oligo 2 (CRE)] | 0.15 | 2.4 |  |  |  | 
7 | oligo 1 (CRE) (dsDNA) DNA 1: GGCCACTACCGCTTCCTCCACATGACGTCATGGTTTTCTCCACCAAGGAAGT DNA 2: ACTTCCTTGGTGGAGAAAACCATGACGTCATGTGGAGGAAGCGGTAGTGGCC |  |  | 1.3 | 0.19 | 0.04 | > 2
8 | oligo 5 (HS) (dsDNA) DNA 1: GGCCACTACCGCTTCCTCCACATGGCGTCATGGTTTTCTCCACCAAGGAAGT DNA 2: ACTTCCTTGGTGGAGAAAACCATGACGCCATGTGGAGGAAGCGGTAGTGGCC |  |  |  | ~3.5 | 0.17 | > 2
9 | oligo 3 (AP-1) (dsDNA) DNA 1: GGCCACTACCGCTTCCTCCACATGAGTCATGGTTTTCTCCACCAAGGAAGT DNA 2: ACTTCCTTGGTGGAGAAAACCATGACTCATGTGGAGGAAGCGGTAGTGGCC |  |  | ~2.5 | 0.27 | ~11 | > 2
10 | oligo 7 (Mutant) (dsDNA) DNA 1: GGCCACTACCGCTTCCTCCACAAATAAAATTGGTTTTCTCCACCAAGGAAGT DNA 2: ACTTCCTTGGTGGAGAAAACCAATTTTATTTGTGGAGGAAGCGGTAGTGGCC |  |  |  |  | > 2 | > 2
11 | oligo 6 (HS) (dsDNA) DNA 1: TTATCCACTTGCGCTCGCCGAGTGGCGTCACCAGCGGTACTGTAATGACGAT DNA 2: ATCGTCATTACAGTACCGCTGGTGACGCCACTCGGCGAGCGCAAGTGGATAA |  |  |  | ~4 | 0.04 | > 2
12 | oligo 2 (CRE) (dsDNA) DNA 1: TTATGACCTGGGAGTGACGTCATGGAATCCACAGA DNA 2: TCTGTGGATTCCATGACGTCACTCCCAGGTCATAA |  |  | ~2.4 | 0.15 | 0.03 | > 2
13 | oligo 4 (AP-1) (dsDNA) DNA 1: TTATGACCTGGGAGTGAGTCAATGGAATCCACAGA DNA 2: TCTGTGGATTCCATTGACTCACTCCCAGGTCATAA |  |  |  | 0.5 | ~17 | > 2
